Assay [1] addresses T1, rh-TNFR2-His (recombinant human TNFR2, His tag) (human, UniProt P20333 23-257).
T1 construct: Soluble antigen of the ForteBio assay; not shown: His tag
T1 sequence (looked up): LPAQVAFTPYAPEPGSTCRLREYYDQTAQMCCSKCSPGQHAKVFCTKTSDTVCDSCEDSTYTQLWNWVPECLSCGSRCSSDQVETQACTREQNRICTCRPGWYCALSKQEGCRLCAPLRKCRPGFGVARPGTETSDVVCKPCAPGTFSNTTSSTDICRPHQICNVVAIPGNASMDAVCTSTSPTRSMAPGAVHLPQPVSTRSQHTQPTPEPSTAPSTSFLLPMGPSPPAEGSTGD
Briefly: BLI (ForteBio), antibody on sensor, 100 nM rh-TNFR2-His in solution, 1:1 model. As to the method:
(§1) In the present invention, the equilibrium dissociation constant (KD) for the binding of the 3 exemplary chimeric antibodies of the present invention described above to human TNFR2 (hTNFR2), cynomolgus monkey TNFR2 (cTNFR2), murine TNFR2(mTNFR2), and human TNFR1(hTNFR1) was determined by biological optical interferometry (ForteBio). For comparison, the equilibrium dissociation constant (KD) of a positive control antibody OPI (humanized antibody SBT-002e in WO 2017083525, VH sequence of SEQ ID NO: 58, VL sequence of SEQ ID NO: 59) was determined.
(§2) The ForteBio affinity assay was performed according to the prior art (Estep, P, et al., High throughput solution based measurement of antibody-antigen affinity and epitope binning. MAbs, 2013.5(2): p. 270-278). Briefly, a sensor was equilibrated offline in an assay buffer for 30 min, and was equilibrated online for 60 s to establish a baseline. The purified antibodies obtained as described above were loaded online onto an AHQ sensor (ForteBio) for the ForteBio affinity assay. The sensor with the loaded antibodies was then exposed to each of 100 nM hTNFR2, cTNFR2, mTNFR2, and hTNFR1 antigens for 5 min before transferring the sensor to an assay buffer for 5 min of dissociation for dissociation rate measurement. The kinetic analysis was performed using a 1:1 binding model.
(In general: In BLI a coated tip is dipped into the sample, and binding shifts an interference pattern.)

Assay [2] deals with T2, CYNO-TNFR2-His (cynomolgus monkey TNFR2, His tag) (cynomolgus monkey, UniProt A0A2K5VET2 132-366).
T2 construct: Soluble antigen of the ForteBio assay; also called cTNFR2; not shown: His tag
T2 sequence: T1 sequence (looked up) with S16G, S36P, P117Q, N164H, E210A, S216G, M223V
Briefly: BLI (ForteBio), antibody on sensor, 100 nM CYNO-TNFR2-His in solution, 1:1 model. On the procedure: as §1, §2

The target in assay [3] is T3, human TNFR2 overexpressed on CHO-S cells (CHOS-hTNFR2) (human, UniProt P20333 23-461).
T3 construct: also called hTNFR2 CHO-S; human TNFR2 molecule overexpressed on CHO-S cells
T3 sequence: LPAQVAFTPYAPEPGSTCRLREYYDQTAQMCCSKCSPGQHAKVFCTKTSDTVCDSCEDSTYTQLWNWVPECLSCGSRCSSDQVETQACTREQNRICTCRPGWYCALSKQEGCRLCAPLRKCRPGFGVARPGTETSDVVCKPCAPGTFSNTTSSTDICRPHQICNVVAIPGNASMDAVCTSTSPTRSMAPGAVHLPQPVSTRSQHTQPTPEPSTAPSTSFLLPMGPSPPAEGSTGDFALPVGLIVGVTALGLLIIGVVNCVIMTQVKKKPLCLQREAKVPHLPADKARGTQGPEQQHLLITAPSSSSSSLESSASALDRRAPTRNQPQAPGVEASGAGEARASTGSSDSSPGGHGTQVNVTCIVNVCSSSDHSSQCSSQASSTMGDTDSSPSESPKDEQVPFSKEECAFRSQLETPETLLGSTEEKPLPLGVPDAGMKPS
Briefly: flow cytometry on CHO-S cells overexpressing human TNFR2 (chimeric antibodies), MFI-FL2-A; unit taken from the axis Conc log(nM); the curve is still rising to about 29000 at log(nM) 2.5. As to the method: (§3) In the study, the binding of the chimeric antibodies of the present invention, after being diluted in a gradient, to a stable CHO-S cell strain overexpressing human TNFR2 on the surface was assayed by using a flow cytometer. cDNAs encoding human TNFR2 (SEQ ID NO: 60) and cynomolgus monkey TNFR2 (SEQ ID NO: 61) were cloned into pCH01.0 vectors (Invitrogen), which were transfected into CHO-S cells (Invitrogen) to produce CHO-S cells overexpressing human TNFR2 (CHOS-hTNFR2) and CHO-S cells overexpressing cynomolgus monkey TNFR2 (CHOS-cTNFR2).
(§4) CHOS-hTNFR2 cells or CHOS-cTNFR2 cells were counted and diluted to 2×10⁶ cells/mL, and added to a U-bottom 96-well plate at 100 μL/well. The mixture was centrifuged at 300 g for 5 min, and the cell medium was removed. The dilutions of the samples (the chimeric antibodies 3C4, 69B1, and 72G8 and the positive control antibody OPI) (the antibodies were subjected to a three-fold serial dilution in PBS from the maximum antibody concentration of 300 nM) were added to the U-plate, and the cells were resuspended at 100 μL/well and left to stand on ice for 30 min. The suspension was centrifuged at 400 g for 5 min, and the supernatant was removed. The cells were washed twice with PBS. The mixture was centrifuged at 300 g for 5 min, and PBS was removed. […]
A general note: A flow cytometer gives signals particle by particle.

Assay [4] addresses T4, cynomolgus monkey TNFR2 overexpressed on CHO-S cells (CHOS-cTNFR2) (cynomolgus monkey, UniProt P20333 23-461 (human entry)).
T4 construct: also called cTNFR2 CHO-S
T4 chain: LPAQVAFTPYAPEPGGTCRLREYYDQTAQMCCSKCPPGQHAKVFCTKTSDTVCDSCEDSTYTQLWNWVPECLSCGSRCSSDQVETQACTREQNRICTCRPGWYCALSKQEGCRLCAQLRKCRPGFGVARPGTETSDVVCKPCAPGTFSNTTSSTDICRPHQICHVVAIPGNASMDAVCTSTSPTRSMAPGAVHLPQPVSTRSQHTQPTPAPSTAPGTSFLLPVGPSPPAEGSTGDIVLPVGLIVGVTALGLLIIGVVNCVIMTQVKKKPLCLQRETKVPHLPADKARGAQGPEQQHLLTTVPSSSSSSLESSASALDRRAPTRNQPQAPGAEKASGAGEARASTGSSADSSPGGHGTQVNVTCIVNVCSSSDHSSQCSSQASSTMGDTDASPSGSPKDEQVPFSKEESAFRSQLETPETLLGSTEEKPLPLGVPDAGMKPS
Briefly: flow cytometry on CHO-S cells overexpressing cynomolgus monkey TNFR2 (chimeric antibodies), MFI-FL2-A; unit taken from the axis Conc log(nM); the curve is still rising at log(nM) 2.5, no upper plateau. As to the method:
as §3, §4

The record followed here is patent US20240026019A1 (Innovent, published 2024).

Changes are numbered by the printed parent chain.

B1: chimeric antibody 72G8 (antibody, human IgG1, kappa, V domains shown)
VH: EVQLQQSGAELARPGASVMLSCKASGYTFTSYWMQWLKQRPGQGLEWIGAIYPGDGDTRYTQKFKGKATLTADKSSSTAYMQLSSLASEDSAVYYCVRDDGLYYAMDYWGQGTSVTVSS
VL: QIVLTQSPTIMSASLGERVTMTCTASSSVSSSYLHWYQQKPGSSPKLWIYSTSNLASGVPARFSGSGSGTSYSLTISSMEAEDAATYYCHQYHRSPPTFGGGTKLEIKR
Turning to B1, in assay [1], the Kd – broadly, the free concentration of one partner at which half of the binding sites on the other are occupied at equilibrium, for simple one-to-one binding – came out at 4.51 nM; the koff – broadly, the rate constant with which the complex falls apart – is 0.00515 s⁻¹; the kon (as a rule, the second-order rate constant of association) was 1.14e+06 M⁻¹ s⁻¹. Also, in assay [2], the Kd was determined as 3.11 nM, the koff was found to be 0.00509 s⁻¹ and the kon is 1.64e+06 M⁻¹ s⁻¹. Further, the EC50 (in general, the midpoint of the concentration-response curve) in assay [3] was 28.4 nM. This molecule also came in with an EC50 in assay [4] of 122 nM.
